Assay results reported in patent publication US20180125995A1, “ANTI-STAPHYLOCOCCUS AUREUS ANTIBODY RIFAMYCIN CONJUGATES AND USES THEREOF” (priority 2014, published 2018).

Columns and labels:
[1] = test system: MRSA COL bacteria from heart vegetations; assay: FACS analysis of rF1 binding to bacteria from rabbit infective endocarditis heart vegetations; parameters: species or system Staphylococcus aureus; conditions: rabbit model of infectious endocarditis
Description: (§1) For antibody staining of bacteria from infected mouse tissues, 6-8 weeks old female C57Bl/6 mice (Charles River, Wilmington, Mass.) were injected intravenously with 10^8 CFU of logphase-grown USA300 in PBS. Mouse organs were harvested two days after infection. Rabbit infective endocarditis (IE) was established as described in Tattevin P, et al. (2010) Antimicrobial agents and chemotherapy 54: 610-613. Rabbits were injected intravenously with 5×10^7 CFU of stationary-phase grown MRSA strain COL, and heart vegetations were harvested eighteen hours later. Treatment with 30 mg/kg of vancomycin was given intravenously b.i.d. 18 h after infection with 7×10^7 CFU stationary-phase COL.
(§2) To lyse mouse or rabbit cells, tissues were homogenized in M tubes (Miltenyi, Auburn, Calif.) using a gentleMACS® cell dissociator (Miltenyi), followed by incubation for 10 min at RT in PBS containing 0.1% Triton-X100 (Thermo), 10 µg/mL of DNAseI (Roche) and Complete Mini protease inhibitor cocktail (Roche). The suspensions were passed through a 40 micron filter (BD) and bacteria were stained with mAbs as described above. […] During flow cytometry analysis, bacteria were gated for positive staining with mAb 702 from double fluorescence plots. […]

S. epidermidis = assay: FACS analysis of rF1 binding to S. epidermidis; parameters: species or system Staphylococcus epidermidis; conditions: flow cytometry
Description: (§3) Whole bacteria were harvested from TSA plates or TSB cultures and washed with HBSS without phenol red supplemented with 0.1% IgG free BSA (Sigma) and 10 mM Hepes, pH 7.4 (HB buffer) Bacteria (20×10^8 CFU/mL) were incubated with 300 μg/mL of rabbit IgG (Sigma) in HB buffer for 1 h at room temperature (RT) to block nonspecific IgG binding. Bacteria were stained with 2 μg/mL of primary antibodies, including rF1 or isotype control IgG1 mAb gD:5237 (Nakamura G R, et al. (1993) J Virol 67: 6179-6191), and next with fluorescent anti-human IgG secondary antibodies (Jackson Immunoresearch, West Grove, Pa.). The bacteria were washed and analyzed by FACSCalibur® (BD).

USA300 = assay: Uptake and killing of preopsonized USA300 by human PMN; assay type: cell-based, Staphylococcus aureus
Description: (§4) (FIGS. 5A-C) Bacteria were preopsonized with huIgG1 mAbs rF1 (squares), 4675 anti-ClfA (triangles), or anti-herpes virus gD (circles). (FIG. 5A): Binding of mAbs to WT (USA300-Aspa) bacteria was assessed by flow cytometry, and expressed as mean fluorescent intensity (MFI). (FIG. 5B): CFSE-labeled, preopsonized WT (USA300-Aspa) bacteria were incubated with human PMN. Bacterial uptake was expressed as % of CFSE-positive PMN, after gating for CD11b-positive cells by flow cytometry. (FIG. 5C): Preopsonized WT (USA300-Aspa) bacteria were incubated with PMN to assess bacterial killing. Numbers of viable CFU per mL are representative of at least three experiments.

[2] = test system: S. saprophyticus, S. lugdunensis, S. simulans, S. carnosus, Streptococcus pyogenes, Bacillus subtilis, Enterococcus faecalis, Listeria monocytogenes; assay: FACS analysis of rF1 binding to other staphylococcal and Gram-positive species; conditions: flow cytometry
Description: as §3

15 S. aureus strains = assay: FACS analysis of rF1 binding to S. aureus strains; parameters: species or system Staphylococcus aureus; conditions: flow cytometry, all 15 strains tested
Description: as §3

[3] = test system: USA300 derived from infected mouse kidneys, livers and lungs; assay: FACS analysis of rF1 binding to USA300 from infected mouse tissues; parameters: species or system Staphylococcus aureus
Description: as §1, §2

MRSA strain USA300 = assay: Flow cytometry binding of mAbs to USA300 bacteria; parameters: species or system Staphylococcus aureus; conditions: MFI
Description: as §4, §3

B1: rF1: recombinantly produced F1, fully human IgG1 anti-SDR monoclonal antibody binding S. aureus and S. epidermidis (antibody, V domains shown)
VH: EVQLVESGGGLVQPGGSLRLSCAASGFTLSRFAMSWVRQAPGRGLEWVASINNGNNPYYARSVQYRFTVSRDVSQNTVSLQMNNLRAEDSATYFCAKDHPSSGWPTFDSWGPGTLVTVSS
VL: DIQLTQSPSALPASVGDRVSITCRASENVGDWLAWYRQKPGKAPNLLIYKTSILESGVPSRFSGSGSGTEFTLTISSLQPDDFATYYCQHYMRFPYTFGQGTKVEIKRTV
[1]
  binding to MRSA COL from rabbit heart vegetations: strongly bound
S. epidermidis
  binding to S. epidermidis: detectable
USA300; no PMN
  viability of USA300 in the absence of PMN: did not affect viability
USA300; preopsonized USA300, human PMN
  bacterial killing by PMN (viability): potent killing
  bacterial uptake by PMN: increased uptake
[2]
  binding to other staphylococcal and Gram-positive species: did not bind
15 S. aureus strains
  binding to S. aureus strains: potent binding activity
[3]; kidneys, livers and lungs after systemic infection
  binding to USA300 from infected mouse tissues: strongly bound
[3]; mouse kidneys
  duration of sustained binding to USA300 from mouse kidneys after infection: at least 8 days
MRSA strain USA300
  maximum binding relative to isotype-matched anti-ClfA mAb: approximately 10 fold
